Legend:
[1] = biological target: D-sequence-binding protein (D-BP) (human); assay: cell-based or functional assay
[2] = tested on: D-sequence-binding protein (D-BP), dephosphorylated form

| Substance | Ratio of dephosphorylated/phosphorylated ssD-BP, EGF-R-transfected 293 clone 293-4 [1] | Ratio of dephosphorylated/phosphorylated ssD-BP, EGF-R-transfected 293 clone 293-5 [1] | Ratio of dephosphorylated/phosphorylated ssD-BP, EGF-R-transfected 293 clone 293-6 [1] | Ratio of dephosphorylated/phosphorylated ssD-BP, EGF-R-transfected 293 clone 293-8 [1] | Ratio of dephosphorylated/phosphorylated ssD-BP, EGF-R-transfected 293 clone 293-12 [1] | Ratio of dephosphorylated/phosphorylated ssD-BP, control untransfected 293 cells [1] | Ratio of dephosphorylated/phosphorylated ssD-BPs, average of the EGF-R-transfected 293 cell clones [1] | in vitro phosphorylation assay followed by EMSA with the D(-) probe [2] |
| --- | --- | --- | --- | --- | --- | --- | --- | --- |
| human epidermal growth factor receptor (EGF-R) (from UniProt P00533 25-1210) | 0.31 | 0.45 | 0.36 | 0.51 | 0.64 | 3.5 | 0.45 | – |
| purified EGF-R PTK (CalBiochem) | – | – | – | – | – | – | – | incubation of the ssD-BP with the purified EGF-R PTK resulted in phosphorylation of this protein whereas incubation in the presence of ATP alone had no effect |

From patent US7052692
